This is an account of results in patent publication US5955073.

The target of the assay is human transferrin receptor (human) (UniProt P02786).

The substance “454A12-RNase conjugate (monoclonal antibody 454A12 against the human transferrin receptor coupled to RNase A)” displayed an inhibition of protein synthesis of K562 cells (% inhibition (P1, 0.1 µM)) of 99.
